Laboratory results reported in US6667388B2, “Peptide inhibitor of MMP activity and angiogenesis” (Beth Israel Deaconess Medical Center, priority 2001, dated 2003).

Experiments:
[1] = target: T1, proMMP-9 activated by MMP3 (Homo sapiens, UniProt P14780); assay: MMP enzymatic assay with [3H]-labeled gelatin substrate, proMMP-9 activated by MMP3; assay type: biochemical; details: peptide tested as MBP fusion protein; proMMP-9 activated with MBP-MMP3, incubated for 2 hours; FIG. 3
T1 construct: purchased CALBIOCHEM
Procedure: FIG. 3: is a bar graph depicting the inhibitory effect of the peptide of the invention on activated MMP-9 in an in vitro assay. ProMMP-9 activated with MBP-MMP3 was incubated for 2 hours with control protein or recombinant MBP-peptide fusion protein (MBP-29).
(§1) For expression of the peptide as a fusion protein for subsequent use in MMP-9 inhibition assays, the cDNA encoding the peptide in SEQ ID NO:2 was cloned into the prokaryotic expression vector pMAL.c2× (NEN). The peptide was expressed as a fusion with the maltose binding protein (MBP) in the bacterial strain, BL21-codon plus (STRATAGENE). The bacteria were transformed using any standard method known in the art and grown at 37° C., as recommended by the supplier. The bacterial culture was supplemented with IPTG (isopropyl B-D-thiogalacto pyranoside) to a final concentration of 0.3 mM and grown further. The fusion protein with MBP was subsequently extracted from the bacterial cells using purified amylose resin. ProMMP (CALBIOCHEM) was used for assessing functionality of the bacterially expressed MBP-fusion peptide.
(§2) The enzymatic assays were performed using [3H]-labeled gelatin substrate. […] The radioactivity in the TCA soluble fraction was determined by a β-scintillation counter which gives a measure of the enzymatic activity of MMP-9.

[2] = target: T2, proMMP-9 (Homo sapiens, UniProt P14780); assay: MMP enzymatic assay with [3H]-labeled gelatin substrate, basal activity of proMMP-9; assay type: biochemical; details: peptide tested as MBP fusion protein; proMMP9 preincubated at 37° C. for 2 hours with 10 or 100 ng, then [3H]-labeled substrate for 1 hour; FIG. 2
T2 construct: purchased CALBIOCHEM
Procedure: FIG. 2: is a bar graph depicting the inhibitory effect of the peptide of the invention on MMP-9 activity in an in vitro assay. ProMMP9 was preincubated at 37° C. for 2 hours with 10 or 100 ng of recombinant MBP-peptide fusion protein (MBP-29) followed by addition of [^3H]-labeled substrate for 1 hour.
as §1, §2

[3] = target: T3, mouse TSP2-TSR (Mus musculus, UniProt Q03350); assay: Yeast two-hybrid screen with TSP2-TSR as bait; assay type: binding; details: transactivation of reporter genes HIS3 and lacZ
T3 construct: The TSP-1 and TSP-2 TSR regions corresponded to nucleotides 1342-1861 and 1356-1876 of TSP-1 and TSP-2 respectively; expressed in transfected cells; host or cells: S. cerevisiae strain Y190 (bait vector pAS2-2)
Procedure: Generally, the nomenclature and the laboratory procedures in recombinant DNA technology described here are well known to those skilled in the art and are commonly employed in the art. The peptide of SEQ ID NO:1 was isolated by the yeast two-hybrid system using the MATCHMAKER two-hybrid system from CLONTECH.
The S. cerevisiae strain Y190 (CLONTECH, CA) was used for cDNA library screening and for direct testing of protein—protein interactions. The cells were grown at 30° C. either in rich YPD media or minimal media with the appropriate amino-acid supplements. The minimal media were SD-Trp, in which tryptophan was omitted; SD-Leu, in which leucine was omitted; SD-Trp, Leu, in which both tryptophan and leucine were omitted, and SD-Trp, leu, His, in which tryptophan, leucne and histidine were lacking.
The constructs for use in the yeast two-hybrid system were based on the GAL4 two-hybrid system 2, which includes the cloning vectors pAS2-1 and pACT2 (CLONTECH, CA). […] A bait vector with a second reading frame, designated pAS2-2, was constructed by linearizing the pAS2-1 with NcoI and filling-in using T4 DNA polymerase. […]
During the screen, the interaction between the bait (TSP1-TSR or TSP2-TSR) and the prey (NIH3T3 translational library) were assessed by their ability to transactivate the reporter genes HIS3 and lacZ. […]

T1 sequence (P14780 107-707 limits assumed): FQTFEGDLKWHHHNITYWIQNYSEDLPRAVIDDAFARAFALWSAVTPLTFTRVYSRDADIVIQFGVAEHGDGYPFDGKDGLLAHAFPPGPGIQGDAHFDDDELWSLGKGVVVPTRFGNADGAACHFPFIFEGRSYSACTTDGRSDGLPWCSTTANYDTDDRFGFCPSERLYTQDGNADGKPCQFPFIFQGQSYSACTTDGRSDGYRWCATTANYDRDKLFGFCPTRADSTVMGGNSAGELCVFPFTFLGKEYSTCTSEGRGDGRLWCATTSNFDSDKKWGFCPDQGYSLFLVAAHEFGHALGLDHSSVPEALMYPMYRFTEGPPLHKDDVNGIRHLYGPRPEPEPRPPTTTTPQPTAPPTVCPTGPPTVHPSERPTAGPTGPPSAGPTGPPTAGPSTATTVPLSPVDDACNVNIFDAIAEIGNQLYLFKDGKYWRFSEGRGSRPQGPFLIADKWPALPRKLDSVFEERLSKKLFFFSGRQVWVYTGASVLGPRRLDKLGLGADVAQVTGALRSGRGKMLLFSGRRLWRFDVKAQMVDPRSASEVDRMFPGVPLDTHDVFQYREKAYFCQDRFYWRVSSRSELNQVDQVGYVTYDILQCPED
T2 sequence (P14780 20-707 limits assumed): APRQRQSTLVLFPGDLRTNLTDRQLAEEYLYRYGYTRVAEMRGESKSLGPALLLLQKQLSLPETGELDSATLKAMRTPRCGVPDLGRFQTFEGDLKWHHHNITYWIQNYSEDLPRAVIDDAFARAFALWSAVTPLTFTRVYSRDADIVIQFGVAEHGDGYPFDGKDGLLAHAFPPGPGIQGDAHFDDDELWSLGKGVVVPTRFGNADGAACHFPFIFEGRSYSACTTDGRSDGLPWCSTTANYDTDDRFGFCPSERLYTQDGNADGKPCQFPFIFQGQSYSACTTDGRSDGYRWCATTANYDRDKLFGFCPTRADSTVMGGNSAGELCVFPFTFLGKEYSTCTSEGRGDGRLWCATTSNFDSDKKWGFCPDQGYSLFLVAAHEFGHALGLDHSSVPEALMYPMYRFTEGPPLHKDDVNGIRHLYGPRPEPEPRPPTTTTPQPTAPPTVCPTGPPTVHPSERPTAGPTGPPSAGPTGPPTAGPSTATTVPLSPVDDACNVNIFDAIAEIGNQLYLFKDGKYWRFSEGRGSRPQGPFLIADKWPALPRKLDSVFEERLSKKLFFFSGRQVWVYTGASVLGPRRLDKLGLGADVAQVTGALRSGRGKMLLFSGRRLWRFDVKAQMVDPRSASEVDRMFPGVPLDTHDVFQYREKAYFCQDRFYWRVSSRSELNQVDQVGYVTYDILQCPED
T3 sequence (Q03350 381-552): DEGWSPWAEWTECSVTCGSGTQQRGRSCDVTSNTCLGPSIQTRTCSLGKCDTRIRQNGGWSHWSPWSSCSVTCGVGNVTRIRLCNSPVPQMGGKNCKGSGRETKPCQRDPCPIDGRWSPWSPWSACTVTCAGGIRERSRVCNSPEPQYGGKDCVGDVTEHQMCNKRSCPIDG

“APWNCCPVSCCGNCCFFRAL QSCPQG (APWNCCPVSCCGNCCFFRALQSCPQG; OTHER INFORMATION: Peptide Inhibitor of MMP- 9 Activity and Angiogenesis) [peptide of SEQ ID NO:1]” was tested, and the “inhibition of MMP-3 dependent activation of MMP (activated MMP-9)” value [1] was “inhibited in a dose-dependent manner”, the “inhibition of MMP-9 activity (basal activity of proMMP-9)” value [2] was “inhibited MMP-9 activity in a dose-dependent manner” and the “interaction with TSP-2” value [3] was “isolated as an interactor of TSP-2”.
